Data taken from the DeepSol protein solubility set.

Assay: soluble on expression in E. coli; label from the status in PepcDB or PDB records

Sequence	soluble on expression in E. coli
MVAADIGAGLADALTAPLDHKDKGLQSLTLDQSVRKNEKLKLAAQGAEKTYGNGDSLNTGKLKNDKVSRFDFIRQIEVDGQLITLESGEFQVYKQSHSALTAFQTEQIQDSEHSGKMVAKRQFRIGDIAGEHTSFDKLPEGGRATYRGTAFGSDDAGGKLTYTIDFAAKQGNGKIEHLKSPELNVDLAAADIKPDGKRHAVISGSVLYNQAEKGSYSLGIFGGKAQEVAGSAEVKTVNGIRHIGLAAKQHHHHHH	soluble
MGHHHHHHSHKDDTDPGQLKGLSAHTHVELPYYSKFILIAAYLASYNPARTDKRFFLKHHGKIKKTNFLKKHEKTSNHLLGPKPFPLDRLLAILYSIVDSRVAPTANIFSQITSLVTLQLLTLVGHDDQLDGPKYKCTVSLDFIRAIARTVNFDIIKYLYDFL	not soluble
MGSDKIHHHHHHMRKFKIPNMGALVAFEAAARHESFTHTAKELFLTESAVSRQIATLEASLGVRLFARVKQRVVLTRAGKLYGTQVRRALEALDRDTLSIIAHGSGGGYLELAVLPTFASHWLIPRIKSFYDRTPDVRVNMGSRTDLFSFEDTHFEAAIHYGKPTWPGTSSDYLFGEEVVPICSPALLDGPVERVEDLLAYPLLHSTTRPGAWAQWFETHGVEDIRTMQGVRYELHTMLISAAAAGLGIALVPKFFVEEQLQQLGLVVPCDAATVGDSAYYLVYPTELSHSKPLESFRAWLLEQASAYAAPGRDGEEDDLDAEDDEDVE	not soluble
TQDWNWNIGYNISYNKNKITKMTFNDDPNYAGVIHGGIDGGTGYNALIHRVGEAFNSFYVFEQIYGPDGKPIEGAYVDQNGDNQINDADLICFKKAAPDVFMGLTSQLSYKNWDFSFALRGSFGNYVYNNVQSNREAYEGANMYDQTGFLKNRLTSARSTDFKNAQYRSSYYVQNASFVRMDNISLGYTFNKLFNDKQSARVYATVQNPFVITKYKGLDPEISGEGIDNNIYPRPRVFMIGLNLNF	not soluble
MSLILTLDPQVAGASGDMVLGALIAVGADPNRLEEVVHEVSSLGHEVDVHVHEIQKRGIRAVRVEVDAEGDLRDPDELREAVKTVAENVLEDRWRELPELALKYLLRAEERVHGDLCHLHELGSSDTVVDLVGTAALLEDLNPKASEVLPPNVGSGTVETEHGRLPVPAPAVVEVLSEWDVGIVREGEGELLTPTGAALLRTIDELLPDPPPPYRVKRQGFGAGTKDLPDRPNVLRALICEPGGSGEHVRIVETSVDDVDGEAVGELIEAVLQLEGVHDVEVLHGFGKKGRPRFVIRVVTEDRPGIEREVFRELFRWTGTLGARVYRCTRVTADRRIVDVDGIRVKVSRFEDVHHAKPEWEDVRRKVDRESAPLTRARLVGDLRKRYEGDGEDGAGDEGHHHHHH	soluble
MEDNRLVINRHRATQVLFQLVNISTQLSYQFFCKDSVLLLRIVQKIQSNSWLTSCCARKTVTTLRIKTQPANNKH	not soluble
MHKIRSHSKYIIPRLNKIVEEGDADAVGFEFPVESFKFLE	not soluble
MTDTDTQADRFEQMMWQAVDKLFEQHDGKLESMDGREQELVLIWRTEADIGNGSILQFVCNWGFPAAEKTCSVLKKIGAVHSAMLIHRAADALDKEIRRLQSEGKNLKEMWDITSRQQNRLTAEQSG	not soluble
MVDLKRLRQEPEVFHRAIREKGVALDLEALLALDQEVQELKKRLQEVQTERNQVAKRVPKAPPEEKEALIARGRALGEEAKRLEEALREKEAQLEALLLQVPLPPWPGAPVGGEEANREIKRVGSPPEFSFPPLDHVALMEKNGWWEPRISQVSGSRSYALKGDLALYELALLRFAMDFMARRGFLPMTLPSYAREKAFLGTGHFPAYRDQVWAIAETDLYLTGTAEVVLNALHSGEILPYEALPLRYAGYAPAFRSEAGSFGKDVRGLMRVHQFHKVEQYVLTEASLEASDRAFQELLENAEEILRLLELPYRLVEVATGDMGPGKWRQVDVEVYLPSEGRYRETHSCSALLDWQARRANLRYRDPEGRVRYAYTLNNTALATPRILAMLLENHQLQDGRVRVPKALVPYMGKEVLEPCG	soluble
MFKSQTAILPEAGPFALYTLLKVRQNHAHVLQALKALPALVEEINQNQPGAELTVSVAFSKGFWSHFEMASPPELIDFPELGEGETHAPSTDVDVLIHCHATRHDLLFYTLRKGISDIAQDIEIVDETYGFRYLDARDMTGFIDGTENPKAEKRAEVALVADGDFAGGSYVMVQRFVHNLPAWNRLNLAAQEKVIGRTKPDSVELENVPAASHVGRVDIKEEGKGLKIVRHSLPYGSVSGDHGLLFIAYCHTLHNFKTMLESMYGVTDGKTDQLLRFTKAVTGAYFFAPSQVMLQELTLKNQ	not soluble
MSLKSDEVFAKIAKRLESIDPANRQVEHVYKFRITQGGKVVKNWVMDLKNVKLVESDDAAEATLTMEDDIMFAIGTGALPAKEAMAQDKMEVDGQVELIFLLEPFIASLK	soluble
MAHHHHHHMELSKYAGLSSERLDCLRNLDIRKRSIYKGSTFSYGNNIYDILHNYSDKQKENKSDGVSVAHDYKDFQRNIKFAGLESEIKNDINIRNRRIKNDMNYRNDNLKDILQNNMNEQNINNSKYFLSDKGYVLTPKRCLARHVDDSEINKYFSTKYAVTDSSTGRTEIMVERKPGCSNIIVQNFSEFDAYGTYKKKDERINRRDSFVHTKMGIVPRDGSCIDNNKCKAQATFTHIHRRDNIAPDNYWLCPTIESDKKNKTKR	not soluble
MKKQLDQLTAYTPGLSPESLKKQYGIRGELHKLASNENVYGPSPKVKTAIQSHLDELYYYPESGSPKLREAISQQLNVDASRILFGAGLDEVILMISRAVLSPGDKIITSESTFGQYYHNAIVESADVIQVPLKDGGFDLDGMLQQIDNKTSLIWLCNPNNPTGTYFSHDELFNFLKRVPSDIPVLIDEAYVEFVTADDFPDTLKLQEDFDNAFLLRTFSKAYGLAGLRVGYVIASEDAIEKWNIIRPPFNVTRISEYAAIAALEDQEYLKEVTQKNSFERDKFYQIPQSQHFLPSQANFVFVKTSRSQALYDALLNVGCITRLFPNGVRITIGLPEQNNKMIEVLKHFEY	not soluble
MKKYFLGDQPTTLDASAFGFLINTIACPIESPLKEYGLSKENLGDYIDRIKMQYYPDLQLEHHHHHH	not soluble
MVEVESDSVAERDRSSFLAGHDAIRLAKSCVDSPPERWYAALYQVYADLTKLRCWSNVEVVYSDSATFPTGLLGPLFEEDSMVQELHSAQCILGSERACFHVRCCIVGSPPSGRAINALSPQSETRTEERIITSRREPEVVIAVPMHAMLKLSNLDQALRMSSHIEGIVKNRHVADSSASTHSTDRQAGSRKSSVIFGFVDEDTTTAYYRIREGACESNDRREFSTDDIASCLAQERT	not soluble
MAQSLPPGDIDFQPRKIVFNAPYNEKQVFQIKLINTSALRIAFGINTYMRKLRVDTLCTPRCGVLDPNEHILLAVSCSAFAFGQVDTTNDRITVEWTNTPEGSDKQFCREWLEGEGMVRRKIILIEYNSTPIAPKPTTSSKPLLQATKLGMWLPIGFAASELYDYEKGVPLDRETCEKNLEKLIKNDRDVDYYEWLNLAQQCRTENHKLMEQMALGMAFTSAMANKQHKKVSRKADKDKITGAIVQNKMFSIETAEIWDRVLTLPNRKWFQISDVVTDGEVSNWSSANLVTHVRALARSVFDKVDEADPHMMCYATSQNACIYVPIDKDFFDGFAEYLIGGFGQEQSRDLKLQVRKLVTEVMGNKLNRVRARYNKMYGKDASEEAAKWMREELDKKDGELKECQLIFSKGSKSSYAIEVHGEEEEDLVKSEVLSGDEDVEME	not soluble
MGSDKIHHHHHHMRNIVKRFGSLVANDHINFEVKRGEIHGLLGENGAGKTTLMNILYGIYQPDEGEIIFEGKKVRFKSPKDAISAGIGMVHQHFMLVPRMNVLQNIVLGYRTPSDPLINHRWVEERIERLSEKYGIDVALYEVIMNLSVGEEQRVEILKALFRDVKLLILDEPTAVLTPQEVDSLFYALKSMTKSGLTIIFITHKLKEALKVTDRITVLRRGRKVGTVITSETNERELTRMMVGRDIVLDITKPPSTPGREVLRVEDLWVRDERGNYAVKGVSFSIREGEIFGIAGVSGNGQKELEEAIAGLRKVERGRIILDGKDITAKGVAEREDIAYIPEDRIGVGLAPSLSVLENLMLKDFKKYKKRFSLNFEEMEKRAMSLVEEFSVKTPSLHSPAGTLSGGNIQRLILARELSRNPRLIIASQPTRGLDVAGIDYVRRRLIEAAMRGSAVLLISEDLDEIFQLSDRIGVMYEGEIRGIVDRKNANYEKIGYLMAGGLEVAA	not soluble
MVPPKLKQALELFKSLPKELRSQVLLEYAAKVPPPPPGVELERVHECQTPFFVHADVEGGKVRLYFHVPDEAPTVKAFAGLLREGLEGESPEAVLEVPPGFYRGYGLEEFFTPLRLRGLEAALLRLQAQVRKALTS	soluble
MSLASIVSVSSYPPPYLLKQETTTEFAKELFQEDFRDIERLLKSFSNGQIEERQFAVPLDWFRQDHSLQEKNDTYIKLATMFSVEVVRQCLQSNVFLKKPVAEEEIDTIVFVSSSGMATPSIEARMMNELPFSPHTKRVPMWGLGCAGGAAGMSRAYEYCRAFPRANVLVVCVELCSLTFQRQDRTKSNLIGASLFSDGVACALVSGDESDVLGRMKMPTRPLILGSSSTLMPDSEQVMGWDVKDTGLHVVFSRDIPNIIRHWLRPNVERFLETYRLSLEQIEAFIAHPGGRKVLEAYEEALSFSDEMTEYSRDILRHHGNMSSPTVLYVLEKFMKDTRDPGQYGLMAALGPGFCSELVLMQWEAVHEGHHHHHH	soluble
MGSDKIHHHHHHMKTIAIRDVTGIMEPLPGFSVVRTDGSDGQRSIKLNGYKTTNNQYGYQFVKNENTVVYDDEEYIIKTHRERTYRKGVGVEATAIHRIFDDLRNNYIYDEKTGTLRLDAMLSFALEGSGYTFEIDTTDLPASVRVENFGWNNSLALFRDILEKFGAEFDYKGKKIYVAKKFGIQRDEPFLRYRFNVKDPEKEIDTSSFATYIRGYGKKDDKGNYLFAEYTSPLAKIYGIKHADPVKDERYTDKDSLLAAMKKQLNDNIDISLTFTAIELESMGLRDIKKGDYVWCVIEPFDLNVQLRAVSREDYSDETKSPTFTFGTITKKASDIIASFNTTKKAVDKVIDTSTGKIKDSAIDTTGLTTKSEFQSHVDNKIVHITAEERAAWNAASNSIGDLTFITWSTPTLKNGWIQYTANTESYPIQYGKDAIGTVNIRGAVSSGVVGSSTPVFTLPAGFRPPFPHLFIGVSSVATDGTPQYFRGIIKTNGDVCIENISNKDTPNQFIGIYTQFKAI	not soluble
MAHHHHHHMCDTANEADGKKLNKKAKSISVVKFKDKEKKKFVSLSSKEETSVQDLPLGCPVCYVPLTVDFNLLNQVEEQDEEEMIVCKEETTYINKSFINRINTNEYRSSTKIEAVFEEVKNVIHTTDDKCLIFSQYCSMLDLIEYHLKKHNIICSKLLGYMPMVSRNNILYNFNEDKHLRVLLISLKAGGEGLNLQVANRIFIVDPWWNPAAELQAIQRAHRIGQTKTVYATRFIIENTVEEKIVQLQNKKQLVFDCTIGDSGNAMQKLTKEDLAFLFHA	not soluble
MSERPDLVDPLPEDEPLPGENIPDTPEGDDPLDPDTQNEVEDPRR	not soluble
MSLQADFNRPVLAVDTGTSRLSLALRADGETRLFHQEVGSRQSELILPEIRTLFRDAGITAADLGAVVYAQGPGAFTGLRIGIGVAQGLATPFDTPLIGVPSLDAAASLPPPQSCILAATDARMGEVFYAWFDTLNCHRLSDYQVGRAADIRLPEGCAFSDGIGSAFALEEAPPFSGRPDMPTAADFLALAAKGGYPAVHAAHAGLLYVRNKIALTAKEQAERRAEGHHHHHH	soluble
